Drawing on PMC4297576, this text covers Kd, IC50 of inhibition of Cdk2/cyclin A kinase activity, substrate Histone H1 and IC50 of inhibition of Cdk2/cyclin A kinase activity, substrate Rb-C for four substances.

Assay [1] deals with Cdk2/cyclin A complex (T160-phosphorylated full-length human Cdk2 and truncated human cyclin A2, residues 173-432) (human) (UniProt P24941). Kind of assay: ITC. Background: Isothermal titration calorimetry measures the heat released or taken up as one component is titrated into another.
The target is the same in assay [2].

peptide corresponding to sub-domain D1C (p21 residues 139-160), sequence (P38936 139-160): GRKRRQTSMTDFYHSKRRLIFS

A word on the Kd: it is the concentration at which binding is half-saturated. Read a low Kd as tighter binding. In turn, “peptide corresponding to sub-domain D1C (p21 residues 139-160) (from UniProt P38936 139-160)” came in with a Kd in assay [1] of 0.208 µM.
Turning to “p21-KIDC-Y77E (from UniProt P38936 25-164) (domain or fragment)”, in assay [2], the IC50 of inhibition of Cdk2/cyclin A kinase activity, substrate Histone H1 is 0.0554 µM and the IC50 of inhibition of Cdk2/cyclin A kinase activity, substrate Rb-C came to 0.0228 µM.
Regarding “p21-KIDN-Y77E (from UniProt P38936 9-84) (domain or fragment)”, in assay [2], the IC50 of inhibition of Cdk2/cyclin A kinase activity, substrate Histone H1 stood at 0.0681 µM and the IC50 of inhibition of Cdk2/cyclin A kinase activity, substrate Rb-C came out at 0.0466 µM.
“p21-FL-Y77E (from UniProt P38936 1-164) (natural protein)”: in assay [2], the IC50 of inhibition of Cdk2/cyclin A kinase activity, substrate Histone H1 was found to be 0.0234 µM and the IC50 of inhibition of Cdk2/cyclin A kinase activity, substrate Rb-C stood at 0.0199 µM.
